The data set has as its system TAF1 tandem bromodomain N1460F (human). The data set can be described thus: EMSA. As to conditions: no peptide; EMSA: 50 mM HEPES pH 7.5, 100 mM NaCl, 35 nM DNA, 1 h at 4 C; 6% native PAGE, 0.5x TBE, 100 V on ice. HeLa mononucleosome pulldown (undefined DNA) not listed.

In the case of 147 bp Widom 601 DNA, the Kd was found to be 18.2 µM.

For the origin of these results see PMC12599243, “Mechanistic insights into DNA binding by BD1 of the TAF1 tandem bromodomain module”.
